The values that follow come from publication PMC7781312.

This assay deals with prefusion-stabilized MERS-CoV S ectodomain trimer (MERS-CoV 2P S) (MERS-CoV) (UniProt K9N5Q8). The assay is described as follows: cryo-EM structure.

Sequence of prefusion-stabilized MERS-CoV S ectodomain trimer (MERS-CoV 2P S) (K9N5Q8 18-1296): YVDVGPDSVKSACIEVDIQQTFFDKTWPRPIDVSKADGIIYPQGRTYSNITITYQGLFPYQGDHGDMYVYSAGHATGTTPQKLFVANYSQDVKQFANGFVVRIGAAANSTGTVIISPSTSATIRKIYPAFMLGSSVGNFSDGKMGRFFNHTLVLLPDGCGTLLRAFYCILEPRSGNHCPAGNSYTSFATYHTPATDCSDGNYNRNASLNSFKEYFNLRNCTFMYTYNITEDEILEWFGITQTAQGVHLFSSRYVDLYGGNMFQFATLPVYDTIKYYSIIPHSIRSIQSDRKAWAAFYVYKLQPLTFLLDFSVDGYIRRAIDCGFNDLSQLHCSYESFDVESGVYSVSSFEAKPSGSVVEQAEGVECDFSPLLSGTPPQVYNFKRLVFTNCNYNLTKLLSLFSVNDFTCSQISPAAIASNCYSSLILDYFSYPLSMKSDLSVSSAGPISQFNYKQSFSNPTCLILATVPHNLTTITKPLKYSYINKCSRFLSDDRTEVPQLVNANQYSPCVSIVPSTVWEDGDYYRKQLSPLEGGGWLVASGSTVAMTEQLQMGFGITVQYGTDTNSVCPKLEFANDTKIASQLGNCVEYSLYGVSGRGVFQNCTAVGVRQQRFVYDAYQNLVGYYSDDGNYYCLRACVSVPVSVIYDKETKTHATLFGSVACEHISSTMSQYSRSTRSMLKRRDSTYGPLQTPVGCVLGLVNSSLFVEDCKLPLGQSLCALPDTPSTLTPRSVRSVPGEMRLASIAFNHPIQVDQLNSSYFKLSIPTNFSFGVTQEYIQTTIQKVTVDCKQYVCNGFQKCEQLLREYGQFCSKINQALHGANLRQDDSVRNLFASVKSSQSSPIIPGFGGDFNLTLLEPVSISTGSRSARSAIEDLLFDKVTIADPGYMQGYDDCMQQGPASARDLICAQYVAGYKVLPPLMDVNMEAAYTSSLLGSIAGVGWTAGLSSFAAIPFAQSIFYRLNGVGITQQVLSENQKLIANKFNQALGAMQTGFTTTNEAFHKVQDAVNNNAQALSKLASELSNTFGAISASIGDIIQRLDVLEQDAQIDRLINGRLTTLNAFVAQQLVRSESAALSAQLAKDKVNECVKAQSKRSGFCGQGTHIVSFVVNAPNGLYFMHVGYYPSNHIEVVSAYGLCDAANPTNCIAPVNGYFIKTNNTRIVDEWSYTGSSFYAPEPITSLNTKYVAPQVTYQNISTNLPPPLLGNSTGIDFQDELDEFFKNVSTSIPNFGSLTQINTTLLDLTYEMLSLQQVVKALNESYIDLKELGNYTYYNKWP

For the substance “prefusion-stabilized MERS-CoV S ectodomain trimer (MERS-CoV 2P S) (from UniProt K9N5Q8 18-1296) (domain or fragment)”, the stoichiometry N (in general, a count of units in the complex or per binding partner) was 3.
